Experimental data: patent publication US20090170718, “High-stringency screening of target-binding partners using a microfludic device” (published 2009)

What was measured:
[1] = target: T1, Botulinum neurotoxin type A light chain (BoNT/A-rLc) (UniProt P0DPI1 P0DPI1:2-448); test: SPR; conditions: tags: List Biological Laboratories; coupled via amines to Dynabeads M-270 carboxylic acid for selection and bead assays
[2] = target: T1, Botulinum neurotoxin type A light chain …; test: SPR; 20 mM HEPES, 150 mM NaCl, 2 mM KCl, 2 mM MgCl2, 2 mM CaCl2, pH 7.4; […]; conditions: tags: List Biological Laboratories; coupled via amines to Dynabeads M-270 carboxylic acid for selection and bead assays

| Binder | Kd [1] | Kd [2] |
| --- | --- | --- |
| aptamer d (ssDNA) DNA: AGCAGCACAGAGGTCAGATGTCAGATGGCCGGACTCAGGCACTAGACCACTATGCTTCCGTTGCCATTCATCGGCACGTCCTATGCGTGCTACCGTGAA | 0.053 µM | – |
| aptamer b (ssDNA) DNA: AGCAGCACAGAGGTCAGATGTGGTCTTGTCTTTCATTCCAGGTGGCGAGTCAAATCGATACTGATCCGCTGACACAGGATCCTATGCGTGCTACCGTGAA | 0.086 µM | – |
| aptamer a (ssDNA) DNA: AGCAGCACAGAGGTCAGATGTCTTTCATACCGAGGTTGATCCAGTAGTATTCTTATCTAATTTGTTTTGTTCGTATGTGCCCTATGCGTGCTACCGTGAA | 0.065 µM | – |
| aptamer c (ssDNA) DNA: AGCAGCACAGAGGTCAGATGCTTGAGTGTCATGGACGTTCCGGTCTTGGGCGGGATATTTGTTTGTTTTCTGCCTATGTTCCTATGCGTGCTACCGTGAA | – | 0.034 µM |
